Experiments:
[1] = biological target: T1, human CDH6 on tumor cells (OVCAR3 cells, PA-1 cells) (human, UniProt P55285 54-790); test: FACS, OVCAR3 cells
T1 sequence: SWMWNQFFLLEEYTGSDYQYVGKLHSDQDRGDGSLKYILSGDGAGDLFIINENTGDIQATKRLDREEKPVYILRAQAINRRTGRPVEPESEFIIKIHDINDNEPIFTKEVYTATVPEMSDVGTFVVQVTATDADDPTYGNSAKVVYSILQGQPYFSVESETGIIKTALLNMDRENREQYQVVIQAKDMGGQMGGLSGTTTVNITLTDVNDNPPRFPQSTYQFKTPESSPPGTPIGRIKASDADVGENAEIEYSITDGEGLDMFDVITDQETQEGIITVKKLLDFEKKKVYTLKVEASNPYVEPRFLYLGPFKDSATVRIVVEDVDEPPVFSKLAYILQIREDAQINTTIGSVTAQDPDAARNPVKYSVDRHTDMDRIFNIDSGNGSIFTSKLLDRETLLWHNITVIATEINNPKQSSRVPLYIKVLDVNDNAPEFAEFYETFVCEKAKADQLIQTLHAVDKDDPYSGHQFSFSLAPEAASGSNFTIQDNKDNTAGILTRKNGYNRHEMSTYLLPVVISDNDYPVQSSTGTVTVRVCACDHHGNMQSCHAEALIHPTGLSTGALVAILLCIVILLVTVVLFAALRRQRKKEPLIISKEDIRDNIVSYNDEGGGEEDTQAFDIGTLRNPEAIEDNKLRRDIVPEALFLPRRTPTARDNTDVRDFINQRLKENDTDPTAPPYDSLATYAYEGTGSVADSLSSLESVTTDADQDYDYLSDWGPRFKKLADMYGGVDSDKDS
Description: OVCAR3 cells with high expression of CDH6 and PA-1 cells with moderate expression of CDH6 were used to detect the binding activity of the antibodies to the cells. […] The cells were washed once with PBS, counted, resuspended to 2×10⁶ cells/mL in an FACS buffer (PBS+2% FBS), and then added to a 96-well plate at 50 μL/well. The chimeric antibodies were diluted with FACS buffer (PBS+2% FBS) and added to the 96-well plate at 50 μL/well, and the plate was incubated at 4° C. for 1 h. […] The dilution was added to the 96-well plate at 50 μL/well, and the plate was incubated at 4° C. for 1 h. After the plates were centrifuged and washed 2 times with PBS, the cells were resuspended in an FACS buffer. The mean fluorescence intensity (MFI) was measured using FACS Canton II (BD). Analysis was performed by the GraphPad Prism software, data were fitted, and EC50 values were calculated. The chimeric antibodies tested had strong binding to both OVCAR3 cells and PA-1 cells.
According to the above sequences, heavy chain (HC) and light chain (LC) plasmids were constructed (the nucleic acid sequences encoding the VH and VL of the antibodies were recombined into an expression vector carrying a signal peptide (SEQ ID NO: 132, […]) and a heavy chain constant region/light chain constant region sequence to obtain recombinant plasmids expressing VH-CH1-Fc/VL-CL). According to the expression and purification methods in Example 2, the hCDH6-1 humanized antibodies were obtained, and the binding activity of the humanized antibodies was detected by ELISA and FACS (see 2.2 and 2.3 for the method).

[2] = biological target: T2, his-tagged human CDH6 extracellular region protein (hCDH6 ECD-his) (human, UniProt P55285 19-615); test: ELISA, coated antigen; ELISA, coated hCDH6-his; later run beside the hCDH6-14 humanized antibodies (Table 19)
T2 construct: also called Human CDH6-his; hCDH6-his; not shown: his tag
T2 sequence: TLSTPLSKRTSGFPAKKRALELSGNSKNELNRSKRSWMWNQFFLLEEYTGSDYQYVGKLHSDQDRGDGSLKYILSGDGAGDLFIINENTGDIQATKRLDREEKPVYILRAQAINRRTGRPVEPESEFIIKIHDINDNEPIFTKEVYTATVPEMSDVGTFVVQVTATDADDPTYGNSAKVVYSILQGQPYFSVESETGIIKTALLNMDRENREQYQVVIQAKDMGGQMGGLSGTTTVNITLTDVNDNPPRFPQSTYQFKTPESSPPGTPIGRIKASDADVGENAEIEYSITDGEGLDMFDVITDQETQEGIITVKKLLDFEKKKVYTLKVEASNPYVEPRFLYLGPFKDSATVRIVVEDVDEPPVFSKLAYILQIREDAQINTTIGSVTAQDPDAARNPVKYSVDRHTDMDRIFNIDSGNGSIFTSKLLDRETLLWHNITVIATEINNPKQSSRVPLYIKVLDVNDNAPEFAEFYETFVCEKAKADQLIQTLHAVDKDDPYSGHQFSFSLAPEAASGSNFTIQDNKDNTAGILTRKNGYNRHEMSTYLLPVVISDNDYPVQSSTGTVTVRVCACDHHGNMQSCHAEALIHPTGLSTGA

[3] = biological target: T2, his-tagged human CDH6 extracellular …; test: ELISA, coated antigen; ELISA, hCDH6 ECD-his coated at 1 µg/mL, antibody in solution; chimeric antibody run (Table 5)
Description: Human CDH6 protein (hCDH6 ECD-his, conventionally synthesized), monkey CDH6 protein (cynoCDH6 ECD-his, conventionally synthesized; the cynoCDH6 ECD sequence was derived from Uniprot #A0A2K5TW62 (19-615)), and murine CDH6 protein (mCDH6 ECD-his, conventionally synthesized; the mCDH6 ECD sequence was derived from Uniprot #P97326 (19-615)) were diluted with PBS to a final concentration of 1 μg/mL, and added to a 96-well ELISA plate at 100 μL/well. The plate was incubated at 4° C. overnight. The next day, the plate was washed 3 times with a plate washing solution (PBS+0.01% (v/v) Tween 20), and a blocking buffer (PBS+0.01% (v/v) Tween 20+2% (w/w) BSA) was added for blocking at room temperature for 2 h. The blocking buffer was discarded, and the plate was washed 3 times. The chimeric antibodies were diluted with 1% BSA+PBS (purchased from Cytiva, Cat. No. SH30264.01) and added to the 96-well plate at 50 μL/well. After incubation at 37° C. for 2 h, the plate was washed 3 times with a plate washing solution. […] The plate was incubated at 37° C. for 1 h and then washed 5 times with a plate washing solution. […] OD450 nm values were read using a microplate reader (Biotek). Analysis was performed by the GraphPad Prism software, data were fitted, and EC50 values were calculated. […]

| Binder | EC50 [1] [nM] | Max MFI [1] [MFI] | EC50 [2] [nM] | EC50 [3] [nM] |
| --- | --- | --- | --- | --- |
| CHI-CDH6-1 (antibody, human IgG1, kappa, V domains shown, also called CHI-hCDH6-1; CH1-CDH6-1) VH: QVQLQQPGAELVRPGSSVKLSCKASGYTFTNYWMHWVKQRPIEGLEWIGDIDPSHSETHYTQKFKDKATLTVDKSSSTAYMQLSSLTSEDSAVYYCARGDLGRFDYWGQGTTLTVSS VL: DIVLTQSPASLAVSLGQRATISCRASESVSIHGTHLMHWYQQKSGQPPKLLIYAASNLESGVPARFSGSGSETDFTFNIHPVEEEDAATYFCQQSFEDPWTFGGGTKLEIKR | 0.194 | 14900 | – | – |
| CHI-CDH6-14 (antibody, human IgG1, kappa, V domains shown, also called CHI-hCDH6-14; CH1-CDH6-14) VH: QIQLQQSGPELVKPGTSVKISCKASGYTFTDNYINWVRQRPGQGLEWIGWIYPGTGNSYYNEKFKGKATLTVDTSSSTAYMQFSSLTSEDSAVYLCASSYGDSFDYWGQGTTLTVSS VL: DIQMTQTTSSLSASLGNRVTISCRASQDIRNYLNWYQQKPDGTFKLLISYTSRLHSGVPSRFSGSGSGTDYSLTVSNLEPEDIATYYCQQYSQLPWTFGGGSRLEIKR | – | – | 0.034 | 0.044 |
| hCDH6-1-H2L3 (antibody, V domains shown, Humanized) VH: EVQLVQSGAEVKKPGSSVKVSCKASGYTFTNYWMHWVRQAPGQGLEWMGDIDPSHSETHYTQKFKDRVTITVDKSTSTAYMELSSLRSEDTAVYYCARGDLGRFDYWGQGTTVTVSS VL: DIQMTQSPSSLSASVGDRVTITCRASESVSIHGTHLMHWYQQKPGKPPKLLIYAASNLESGVPSRFSGSGSETDFTFTISSLQPEDIATYYCQQSFEDPWTFGGGTKVEIK | 0.17 | 14800 | – | – |

Reference: patent US20260234242A1 (HAINAN SIMCERE ZAIMING PHARMACEUTICAL, published 2026)
